One series deals with HER2 siRNA. The series is described as follows: siRNA gel mobility shift assay. It counts as binding. The note with it: 50 pmol siRNA, increasing protein. From the text: The gel was stained with ethidium bromide to visualize siRNA and siRNA-protein complexes.
One goal was to assemble a noncovalent siRNA conjugate. […] The duplex, which was obtained from Invitrogen (Carlsbad, CA, USA), has been established elsewhere to specifically eliminate HER2 transcripts and thus induce apoptosis (Choudhury et al., 2004; Faltus et al., 2004).

Series [1] has as its system MDA-MB-435 (HER2+) cells. The series is described as follows: HerDox targeted toxicity in vitro, separate cultures. It counts as cell-based, human. The note with it: 10× molar excess. As for the experimental part: All treatments, N=3. FIG. 27A. Comparing cytotoxicity to HER2+ (MDAMB-435) and HER2− (MDA-MB-231) cells in separate cultures. Left, Relative survival (as % of untreated cells) on day 3 of treatment. Right, Micrograph of live cells after treatment. Control, mock (HBS) treatment. FIG. 27B, Receptor specificity of cytotoxicity. […] FIG. 27C, Toxicity to cells displaying differential HER2. Cytotoxicities from HerDox titrations were assessed on each cell line by metabolic assay and confirmed by crystal violet stain on day 3 of treatment. CD50 values (shown in log scale) were determined by non-linear regression analyses of HerDox killing curves using GraphPad Prism. The relative HER2 level of each cell line is shown next to each CD50 value. FIG. 27D, Targeting in a mixed MDA-MB-435(HER2+,GFP−)/MDA-MB-231(HER2−,GFP+) cell culture. Survival was determined by calculating the relative doubling time (DT) of experimental (exp) cells normalized by mock-treated (con) cells based on crystal violet stains (total cells) and GFP fluorescence (MDAMB-231 cells), and applying DTMDA-MB-435=DTTotal-DTMDA-MB-231 as previously described. Relative survival is shown for Day 2 of treatment. FIG. 27E, Targeted glioma cell death in vitro. U251 cells were treated once with the indicated HerDox (and competitive inhibitor where indicated) or Dox doses and measured for cell survival at the indicated time points after treatment. * P<0.05 compared to Mock.
For all in vitro treatments, cell lines were grown for ˜36 h after plating (104/well in 96-well dishes) to allow receptor re-expression, followed by media replacement with new media containing indicated constructs in reduced volume at the indicated final molarities for 4 h with rocking, followed by supplementation with additional media and continued growth for the indicated time periods. Except for the experiments performed on the U251 glioma cells (which received a one-time treatment), cells received these treatments daily while separate sets of wells were assessed for cell death by either metabolic assay (CellTiter Promega Corporation, Madison, WI, USA) or crystal violet stain each day. Where indicated, cells received competitive inhibitor (eHRG) at 10× molar excess for 30 min-1 h at 4° C. before treatment. Treatment of mixed (HER2+/HER2−) cell cultures with HerDox or Dox (0.5 uM), and cell surface receptor subunit level determination were performed as previously described.

The nature of series [2]: Ultrafiltration of HerPBK10-siRNA conjugates (100K mwco, high speed centrifugation). Format: physicochemical. From the text: FIGS. 6A-6B depict, in accordance with an embodiment described herein, HerPBK10-siRNA form stable conjugates that can be isolated by ultrafiltration. Conjugates were made in 0.1M Hepes/OptimemI buffer for 20′-RT, as described above. […] Filtrates and retentates were collected and loaded onto either a 2% agarose (FIGS. 6A and 6B, left panel) or 5% PAGE/native gel (FIG. 6B, right panel). Gels were stained for Et-Br to visualize siRNA and siRNA-protein complexes.

The nature of series [3]: siRNA stability in serum, agarose gel electrophoresis. It counts as in vitro ADME, bovine. The note with it: 100% serum, 1 h at 37° C.
Another series relates to MDA-MB-231 (HER2−) cells. Kind of series: Cell survival (crystal violet) after targeted or lipo-mediated siRNA delivery. Format: cell-based, human. How it is done:
(§1) Complexes were prepared as described in FIG. 2. Un, untreated. In FIG. 12A, *, P<0.02 (HER2+ vs HER2− cells). In FIG. 12B, *, P<0.05 (compared to untreated). Significant differences determined by 2-tailed t tests.

The test system of series [4] is MDA-MB-435 (HER2+) cells. The series is described as above. It counts as cell-based, human. As for the experimental part: as §1
The subject of series [5] is HER2+ human breast cancer cells. The series is described as follows: Survival of HER2+ cells in culture after targeted conjugate (summary). It counts as cell-based. As to conditions: depending on the cell line. An excerpt: The inventors designed HerPBK10 to penetrate HER2+ cells by combining the ‘Her’ domain for binding heregulin receptors, which have an increased ligand affinity on HER2+ tumor cells, and the membrane lysis and intracellular trafficking features of the ‘PB’ domain, which is derived from the cell-entry functions of the Ad capsid. Binding and transport of nucleic acids can be mediated by the polylysine, ‘K10’ domain. […] Using in vivo fluorescence imaging, it was observed that the targeting ligand used here specifically accumulates at HER2+ tumor tissue in mice while evading accumulation in other tissues. It was also observed that HerPBK10 could mediate the uptake of a Cy3-labeled oligonucleotide in HER2+ cells. […] Associated with this reduction was substantial target cell death.

For series [6], the system named is IFN-alpha. The series is described as follows: IFN-alpha secretion by sandwich ELISA, MDA-MB-435 cells. The note with it: complex at 10 and 50 nM siRNA dose, HerPBK10 equivalent to 50 nM dose, 24 h. Format: cell-based, human. As for the experimental part:
(§2) FIGS. 13A-13B depict, in accordance with an embodiment herein, cytokine induction. […] At 24 h after treatment, media was collected from above the cells and assayed for (FIG. 13A) IFN-alpha, or (FIG. 13B) IFN-beta titer by sandwich ELISA following manufacturer's protocol (PBL Biomedical Laboratories). *, P<0.01 (compared to untreated); **, P=0.01 (HER2+ vs HER2− cells); †, P<0.05 (compared to untreated). Statistical significances determined by 2-tailed t tests.
(§3) To examine whether cytokines contribute to the targeted toxicity observed earlier, the media of HerPBK10-siRNA (T7-transcribed)-treated HER2+ MDA-MB-435 and HER2− MDA-MB-231 cells were collected and assayed by ELISA for interferons alpha and beta. […] Given the overall low level of cytokine detected in the medium by all treatments, these differences are likely to have little relevance.
Background: In an ELISA, binding on a coated surface is turned into a signal by an enzyme label.

The subject of series [7] is IFN-alpha. The series is described as follows: IFN-alpha secretion by sandwich ELISA, MDA-MB-231 cells. It counts as cell-based, human. As to conditions: 24 h. As for the experimental part:
as §2, §3

A further series deals with HER2+ MDA-MB-435 tumors. The series is described as follows: Tumor growth after intratumoral injection. It counts as in vivo, mouse. As to conditions: two IT injections a week apart, 1.5 nmoles siRNA. How it is done: FIGS. 15A-15B depict, in accordance with an embodiment herein, effect on tumor growth. Female (6-8 week) nude mice were inoculated with human HER2+ MDA-MB-435 cancer cells by subcutaneous flank injections of 1×10^7 cells per injection. At 4-6 weeks after implant, weekly measurements were taken to quantify tumor volume and track growth. […] Complex was prepared as described in FIG. 14. FIG. 15A, representative mice at week 4 with tumors indicated by arrows.
Before testing for targeted toxicity of HerPBK10-siRNA, the inventors assessed cytotoxic potential in vivo after intratumoral (IT) injection of complexes in tumor-bearing mice. […] Blood was also collected after each injection to assess cytokine levels. […] Even though the complex was not delivered intravenously but rather by IT injection, there still appears to be an advantage to the targeted complex with regard to tumor toxicity.

The subject of series [8] is IFN-alpha. The series is described as follows: In vivo cytokine induction, blood IFN-alpha ELISA after IT injection. Also noted: species or system mouse. As to conditions: 24 h after each IT injection, compared to saline control. How it is done:
FIG. 16 depicts, in accordance with an embodiment herein, in vivo cytokine induction. Blood was collected from the mice treated in FIG. 15B at 24 h after each IT injection and relative IFN-alpha levels quantified by sandwich ELISA following manufacturer's protocol (PBL Biomedical Laboratories). Control, tumors receiving saline injections. *, P=0.05 compared to control (as determined by 2-tailed unpaired T test).
To examine whether cytokines contribute to the tumor reduction observed and described herein, blood was collected from the same mice at 24 h after each IT injection and assayed for interferon (TFN)-alpha. […] It is possible that its indirect contribution results from enhanced tumor delivery, penetration, retention. Together with the tumor-shrinkage observed from these injections, these findings provide additional evidence that the targeted carrier, HerPBK10, can deliver both siRNA-mediated silencing and cytokine-mediated cytotoxicity to induce two-pronged targeted destruction to tumor cells.

Series [9] relates to HER2+ (MDA-MB-435) tumors. Kind of series: In vivo tumor targeting of Cy5-labeled siRNA, fluorescence imaging. Also noted: species or system mouse. The note with it: tail vein injection. An excerpt:
FIGS. 23A-23C depict in accordance with an embodiment herein, monitoring in vivo tumor targeting. […] The mice were immediately monitored by in vivo fluorescence intensity imaging through our collaborators' imaging facility (Farkas lab, Cedars-Sinai Medical Center). 23C, Analysis of the fluorescence intensity contrast between tumor and non-tumor areas of 23A and 23B (graphs).

With “PB: penton base segment of adenovirus serotype 5 [reference compound]”, the siRNA electromobility result in the series on HER2 siRNA is given as “did not”.

B1: eHRG: competitive inhibitor, competing ligand of the heregulin receptor (protein, UniProt Q02297 20-242, looked up)
extracellular domain: SGKKPESAAGSQSPALPPRLKEMKSQESAAGSKLVLRCETSSEYSSLRFKWFKNGNELNRKNKPQNIKIQKKPGKSELRINKASLADSGEYMCKVISKLGNDSASANITIVESNEIITGMPASTEGAYVSSESPIRISVSTEGANTSSSTSTSTTGTSHLVKCAEKEKTFCVNGGECFMVKDLSNPSRYLCKCQPGFTGARCTENVPMKVQNQEKAEELYQKR
modifications: extracellular domain
Take B1: the “effect of competitive inhibitor on cell killing by HerDox” value with MDA-MB-435 (HER2+) cells [1] is recorded as “prevented HER2+ cell killing”.

B2: HerPBK10-siRNA: noncovalent conjugate of HerPBK10 with anti-HER2 siRNA bound via electrophilic interaction (conjugate)
chain: LPPRLKEMKSQESAAGSKLVLRCETSSEYSSLRFKWFKNGNELNRKNKPQNIKIQKKPGKSELRINKASLADSGEYMCKVISKLGNDSASANITIVESNEIITGMPASTEGAYVSSESPIRISVSTEGANTSSSTSTSTTGTSHLVKCAEKEKTFCVNGGECFMVKDLSNPSRYLCKCQPGFTGARCTENVPMKVQNQEKAEELYMRRAAMYEEGPPPSYESVVSAAPVAAALGSPFDAPLDPPFVPPRYLRPTGGRNSIRYSELAPLFDTTRVYLVDNKSTDVASLNYQNDHSNFLTTVIQNNDYSPGEASTQTINLDDRSHWGGDLKTILHTNMPNVNEFMFTNKFKARVMVSRLPTKDNQVELKYEWVEFTLPEGNYSETMTIDLMNNAIVEHYLKVGRQNGVLESDIGVKFDTRNFRLGFDPVTGLVMPGVYTNEAFHPDIILLPGCGVDFTHSRLSNLLGIRKRQPFQEGFRITYDDLEGGNIPALLDVDAYQASLKDDTEQGGGGAGGSNSSGSGAEENSNAAAAAMQPVEDMNDHAIRGDTFATRAEEKRAEAEAAAEAAAPAAQPEVEKPQKKPVIKPLTEDSKKRSYNLISNDSTFTQYRSWYLAYNYGDPQTGIRSWTLLCTPDVTCGSEQVYWSLPDMMQDPVTFRSTRQISNFPVVGAELLPVHSKSFYNDQAVYSQLIRQFTSLTHVFNRFPENQILARPPAPTITTVSENVPALTDHGTLPLRNSIGGVQRVTITDARRRTCPYVYKALGIVSPRVLSSRTFKKKKKKKKKK
For the molecule B2, the “Free siRNA in 100K filtrates” value in series [2] is “low to no detection of free siRNA”. Further, the “State of the siRNA (ethidium bromide staining)” value in series [3] is reported as “intact”. Also, the cell survival result with MDA-MB-231 (HER2−) cells was “little to no effect”; in the series with MDA-MB-435 (HER2+) cells [4], “dose-dependent reduction in survival”. Besides, the “reduction in HER2+ cell survival” value in [5] was “up to 85%”. Also, the IFN-alpha secretion entry with IFN-alpha [6] is “substantially elevated”; in the series on IFN-alpha [7], “little affected”. Moreover, the tumor growth result with HER2+ MDA-MB-435 tumors is given as “average reduction in tumor growth”. The “circulating IFN-alpha” value in the series with IFN-alpha [8] is reported as “elevated circulating IFN-alpha”. For the same molecule, the tumor retention result in [9] is on record as “tumor retention”. Besides, in [9] (all time points, compared to free siRNA), the “fluorescence intensity contrast between tumors and non-tumor areas” value is “preferential tumor accumulation”.
